No end group written: not given here.

Experiment [1] deals with T1, APC (Homo sapiens, UniProt P04070). The arrangement: Protein C consists of a 155 amino acid residue light chain and a 262 amino acid residue heavy chain; from tissue; alpha1-AT mutant from Transgene, Strasbourg. The conditions noted are these: Heeb et al. 1990; cited from earlier work.
Target sequence in this assay (P04070 43-197): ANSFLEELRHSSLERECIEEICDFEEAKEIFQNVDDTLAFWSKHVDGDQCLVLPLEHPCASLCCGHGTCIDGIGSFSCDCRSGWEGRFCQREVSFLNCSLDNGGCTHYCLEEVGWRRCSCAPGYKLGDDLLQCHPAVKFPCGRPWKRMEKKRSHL
Target sequence in this assay (P04070 212-461): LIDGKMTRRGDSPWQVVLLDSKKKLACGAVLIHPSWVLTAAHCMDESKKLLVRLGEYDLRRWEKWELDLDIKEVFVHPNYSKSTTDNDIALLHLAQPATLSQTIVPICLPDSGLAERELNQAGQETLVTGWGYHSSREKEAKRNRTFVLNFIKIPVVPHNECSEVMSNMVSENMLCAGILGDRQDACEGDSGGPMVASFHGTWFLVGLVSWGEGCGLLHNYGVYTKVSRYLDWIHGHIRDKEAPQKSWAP
Experiment [2] addresses T1, APC. Put plainly: Xa-1-stage coagulation assay, inhibition of APC anticoagulant activity. The format is biochemical. The arrangement: Protein C consists of a 155 amino acid residue light chain and a 262 amino acid residue heavy chain; from tissue; host or cells: human plasma factor IX concentrate. The settings on record: final peptide concentration 500 μM; NHP; 0 = no observable effect +10%. As for the experimental part: For testing the inhibition of the synthetic peptides on APC activity described above, Xa-1-stage coagulation assays were also performed as described. See Seegers et al., Thrombosis Res., 13:233-243 (1978); Marlar et al., supra; and Walker et al., J. Biol. Chem., 265:1484-1489 (1990). PC heavy chain-derived peptides listed below in Table 6 and PC light chain-derived peptides listed below in Table 7 were prepared as described above and separately admixed for a final concentration of 2 mM with 120 nM APC in 100 μl of TBS-BSA at pH 7.4 to form separate peptide-APC admixtures. The resulting admixtures were maintained for ten minutes at 37° C. Separate aliquots of peptides maintained under the same conditions in the absence of APC served as controls for the inhibitory effect of synthetic peptides on APC anticoagulant activity. After the maintenance period, 100 μl of NHP and 100 μl of 200 μg/ml of rabbit brain cephalin (Sigma) were admixed into each peptide admixture and maintained for 200 seconds at 37° C. to form pre-coagulation admixtures. In some experiments, Factor VIII deficient plasma (George King Bio-Medical, Inc.) was used in the place of NHP to determine the effect of Factor VIII on the assay system. Coagulation was then initiated by the admixture of 100 μl of 0.62 nM human activated Factor X (Xa) (Enzyme Research Laboratories, Southbend, Ind.) in TBS-BSA containing 30 mM CaCl2 prewarmed to 37° C. to each of the pre-coagulation admixtures.
The time for clot formation was measured by an Electra 700 Automatic Coagulation Timer (Medical Laboratory Automation, Inc., Mount Vernon, N.Y.). Each peptide's effect was determined in duplicate. The results of the inhibition of APC anticoagulant activity by synthetic peptides as measured in Xa-1-stage coagulation assays are presented in Tables 6 and 7 below with the APTT assay results and are presented as the mean values obtained with APTT assays. Data for results with PC heavy chain-derived peptides are shown in Table 6 and data for results with PC light chain-derived peptides are shown in Table 7.
The results of inhibition of APC anticoagulant activity by PC light chain-derived peptides in a Xa-1 stage coagulation assay are shown in Table 7. The assay was performed in the presence of NHP. Peptides used in the assay were prepared as described in Example 1 and are listed in Table 7 by their corresponding residue positions in native PC protein (SEQ ID NO 1). For all peptides except PC142-155 used in the Xa-1 stage assays listed in Table 7, cysteine residues in the native PC amino acid residue sequence were substituted by either serine or glycine in the synthesized peptide. This was done to prevent multiple disulfide formation and subsequent potential polymerization among peptides with multiple cysteines. […]
Target sequence in this assay (P04070 43-197 limits assumed): as the sequence (P04070 43-197) above
Target sequence in this assay (P04070 212-450 limits assumed): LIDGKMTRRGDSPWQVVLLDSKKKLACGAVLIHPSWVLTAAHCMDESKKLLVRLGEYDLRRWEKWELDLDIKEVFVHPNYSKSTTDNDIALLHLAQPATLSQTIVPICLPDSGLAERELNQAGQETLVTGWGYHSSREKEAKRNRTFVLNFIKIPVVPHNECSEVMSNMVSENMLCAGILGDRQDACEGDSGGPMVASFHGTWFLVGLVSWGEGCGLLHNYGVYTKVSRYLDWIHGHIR

In the case of “α1 -AT: recombinant mutant (Arg358)-α1-antitrypsin, macromolecular pseudo-substrate inhibitor of APC (Transgene)”, in the experiment with APC [1], the “increase in the association rate for APC by substitution of Met358 by Arg” value is recorded as “over 4400 fold”.
Turning to “HPAVKFPSGRPWKRM-NH2 (C-terminus assumed) [PC134-148]”, at 500 µM the inhibition against APC [2] was 66%.
